Assay results: patent US6500934 (dated 2002)
Non-standard residues stand in square brackets, D forms with d. No end group written: not given here. Ahx = NCCCCCC(=O)O

Molecular target: bombesin receptor expressed in transfected Xenopus laevis melanophores (plasmid pJG3.6BR)
Test: cell-based or functional assay

KKKKKKKKKKKKKKKKKKKK[Ahx]GGGQQRLGNQWAVGHLM-NH2 (ends and bridges not checked) [Bombesin monomer (K(20)-εAhx-GGG-QQRLGNQWAVGHLM)]
EC50 (t=30 min) of pigment dispersion in melanophores transfected with the bombesin receptor: 110 nM
